This data set in a line: yeast display, Sf9 membrane polyspecificity reagent, FACS + sequencing; frameworks hold sequencing errors. The procedure, abridged: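 Using colony PCR, genes from sorted yeast display clones were amplified, then sequenced on MiSeq at 2 × 250 and filtered by CDR length. The clones had been stained with 10% biotinylated, detergent-solubilized Sf9 membrane reagent for 1 hour at 4 °C and sorted by FACS into low and high (top ~1%) gates on anti-HA and streptavidin fluorescence. Polyreactivity labels come from the gate of origin.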
With “QVQLVESVGGLVQAGGSLRLSCAASGSTFEIYAMGWYRQAPGKERELVAVISGGDGSTYYADSVKGRFTISRDNAKNTVYLQMNSLKPEDTAVYYCAADYISPGYWDGEYDCWGQGTQVTVSS”, the “polyreactivity (PSR sort gate)” value is “low polyreactivity”.
The value for “QVQLVESVGGLVQAGGSLRLSCAASGSTFRINAMGWYRQAPGKEMELVADINSGGNTTYADSVKGRFTISRDNAKNTVYLQMNSLKPEDTAVYYCAAEPVFDLWEFLLDYGYDYWGQGTQVTLSS” was “low polyreactivity”; that for “QVQLVESVGGLVQAGGSLRLSCAASGSTFVPYAMGWYRQAPGKERELVAAITTSGGNTYYADSVKGRFTISRDNAKNTVYLQMNSLKPEDTAVYYCAADTYRSFDYWGQGTQVTVSS” was “low polyreactivity”; that for “QVQLVESVGGLVQAGGSLRLSCAASGSTFYFNDMGWYRQAPGKERELVAAISRGGSTYYADSVKGRFTISRDTAKNTVYLQMNSLKPEDTAVYYCANGSYVRNYGYWGQGTQVTVSS” was “high polyreactivity”.
With “QVQLVESVGGLVQAGGSLRLSCAASGSTFYPNAMGWYRQAPGKEREFVAAITWSGGRTYYADSVKGRFTNSRDNAKNTVYLQMNSLKPEDTAVYYCSKGGYQHYCGQGTQVTVSS”, the “polyreactivity (PSR sort gate)” value is on record as “high polyreactivity”.
In the case of “QVQLVESVGGLVQAGGSLRLSCAASGSTIANYAMGWYRQAPGKERELVARIRHSDGSTYYADSVKGRFTISRDNAKNTVYLQMNSLKPEDTAVYYCNVAYPRYRGNPRQSGMGYWGQGTQVTVSS” it was “high polyreactivity”; in that of “QVQLVESVGGLVQAGGSLRLSCAASGSTLYPYAMGWYRQAPGKERELVAVITLRGGSTYYADSVKGRFTISRDNAKNTVYLQMNSLKPEDTAVYYCAARKRPFYKYDYWGQGTQVTVSS”, “high polyreactivity”.
For “QVQLVESVGGLVQAGGSLRLSCAASGSTSSLYAMGWYRQAPGKERELVASITSRGGSTYYAVSVKGRFTISRDNAKNTVYLLMNSLKPEDTAVYYCAADASRPDRWYLWKYYYWGQGTQVTVSS”, the “polyreactivity (PSR sort gate)” value was “high polyreactivity”.
Turning to “QVQLVESVGGLVQAGGSLRLSCAASGTFKWYAMGWYRQAPGKERELVAVISSSGGTTYYADSVKGRFTISRDNAKNTVYLQMNSLKPEDTAVYYCNKRFRSWTTGSPYDYWGQGTQVTVSS”, the “polyreactivity (PSR sort gate)” value is given as “high polyreactivity”.
As for “QVQLVESVGGLVQAGGSLRLSCAASGYIFGYNAMGWYRQAPGKERELVAAISRSAGRTYYADSVKGRFTISRDNAKNTVYLQMNSLKPEDTAVYYCAAQSYWLGYEYWGQGTQVTVSS”, the “polyreactivity (PSR sort gate)” value is “high polyreactivity”.
Regarding “QVQLVESVGGLVQAGGSLRLSCAASGYIFKYYAMGWYRQAPGKERELVAAISRSGGSTYYADSVKGRFTISRDNAKNTVYLQMNSLKPEDTAVYYCNAAAYVWKSKQRLYVITYDYWGQGTQVTVSW”, the “polyreactivity (PSR sort gate)” value was “high polyreactivity”.
Regarding “QVQLVESVGGLVQAGGSLRLSCAASGYTLGDYAMGWYRQAPGKERELVAVITRNGGRTYYADSVKGRFTISRDNAKNTVYLQMNSLKPEDTAVYYCNRDTSIRHYNYWGQGTQVTVSS”, the “polyreactivity (PSR sort gate)” value is given as “high polyreactivity”.
Turning to “QVQLVESVGGLVQAGGSLRLSCAASVYIFGYNAMGWYRQAPGKERELVAAISRSAGRTYYAVSVKGRFTISRDNAKNTVYLQMNSLKPEDTAVYYCAAQSYWLCYEYWGHGTQVTVSS”, the “polyreactivity (PSR sort gate)” value is “high polyreactivity”.
The value for “QVQLVESVGGLVQAGGSLRLSCAPSGRTFYIYAMGRYRQAPGKERELVAAISISGSTYYADSVKGRFTISRDNAKNTVYLQMNSLKPEDTAVYYCAADYLDSTYGYVYGWDDYLGQGTQVTVSS” was “low polyreactivity”; that for “QVQLVESVGGLVQAGGSLRLSCAPSGSTFYGYAMGWYRQAPGKESELVAAITWGGASTYYADSVKGRFTISRDNAKNTVYLQMNSLKPEDTAVYYCATVGWGYQPYPFGMDYWGQGTQVTVSS” was “low polyreactivity”; that for “QVQLVESVGGLVQAGGSLRLSCASSGLIFPIYTMGWYRQAPGKERELVAASSSRGGSTYYADSVKGRFTISRDNAKNSVYLQMNCLKPEDTAVYDFGSYDYSGQGTQVTVSS” was “high polyreactivity”.
The value for “QVQLVESVGGLVQAGGSLRLSCPASGINFWNYAMGRYRQAPGKERELVAVISRGGSTYYADSVKGRFTISRDNAKNTVYLQMNSLKPEDNAVYYCAADSVVWEMEYWGQGTLVTVSS” was “high polyreactivity”; that for “QVQLVESVGGLVQAGGSLRLSCSDSGSTFKSYAMGWYRQSPGKERELVAAITHRGSTYYADSVKGRFTISRDNAKNTVYVQMNSLKPEDTAVYYCNVRRIGNGRRVDYCGQGTQVTVSS” was “high polyreactivity”; that for “QVQLVESVGGLVQAGGSLRLSGADSGITFGVYAMGWYRQAPGKVRELVAAICVSGGSTYYADSVKGRFTISRDNAKNTVYLHMNSLKPEVTAVYYCAADRYGHFGYWGQGTQVTLSS” was “high polyreactivity”.
For the sequence “QVQLVESVGGLVQAGGSLRLSSAASGRTFSNAKGWYRQAPGKERELVADISSGGSTNYADSVKGRFTISRDNAKNTVYLQMNSLKPEDPAVYYCAAVSGSLYGYSDDYWGQGTQVTVSS”, the “polyreactivity (PSR sort gate)” value was “low polyreactivity”.
Take “QVQLVESVGGLVQAGGSLRLSSAASGSIFAYNAMGSYRQAPGKERELVAAITSDDSTNNADSVKGRFTISRDNAKNTVYLQMNSLKPEDTAVYYCAAYYYYTYIIGYDYWGQGTQVTVSS”: the “polyreactivity (PSR sort gate)” value is listed as “low polyreactivity”.
For the sequence “QVQLVESVGGLVQAGGSLRLSSAASGSTFRGYALGWYRQSPGKERELVASISWSGGSTYYADSVKGRFTISRDNAKNTVYLQMNSLKQEDTAVYYCAARKRWRNIRMDYWGQGTQVTVSS”, the “polyreactivity (PSR sort gate)” value is listed as “high polyreactivity”.
Take “QVQLVESVGGLVQAGRSHRLSGAASCFTFTGYALGWYRQAPGKEREFVAAISRGGSTKYADSVMGRFTISRDNAKNTVYLQMNSLKPEDTAVYYCDASPVYGISRYTLGIYNYGGQGTQVTVSS”: the “polyreactivity (PSR sort gate)” value was “high polyreactivity”.
As for “QVQLVESVGGLVQAGVSLPLSCAASGFTFSYNAMGWYIQAPGKERELVATIRSSGGSTNYADSVKGRFTISRDNAKNTVYVQMNSLKPEDTAVYYCAADFSYYSTYDYWGQGTQVTVSS”, the “polyreactivity (PSR sort gate)” value is “low polyreactivity”.
Take “QVQLVESVGGLVQPGGSLRLSCAASGFTFRNNAMGWYRQSPVKERELVAAITGSGGRTYYTDSVKGRFTISSDNAKNTVYLQMHSLKPEDTAVYYCNTRYRGVHYTEMDYWGQGTQVSVSS”: the “polyreactivity (PSR sort gate)” value is on record as “high polyreactivity”.
In the case of “QVQLVESVGGVVQAGGSLRLCCAANRSTFAAKAMGWYRQAPGKERELGAAITSGGGTNYADSVKGRFTISRDNAKNTVYLQMNSLKPEDTAVYYCAARTWPWVLGATQDDYWGQGTQVTLSS”, the “polyreactivity (PSR sort gate)” value is “low polyreactivity”.
Regarding “QVQLVESVLGLVQAGGSLRLSCAASGSTILSNAIGWYRQAPGKERELVAAITSGGSTYYADSVKGGFTISRDNAKNTVYFQMNSLKPDDTAVYYCAVRYDRRRYDYWGQGTQVTVSS”, the “polyreactivity (PSR sort gate)” value is listed as “low polyreactivity”.
On to “QVQLVESVRGLVHAGGSLRLSCAASGSTFYPYRMGGYRQAPGKEREFVAAITWSGGSTYYADSVKGRFTISRDNAKNTVYLQMNSLKPEDTAVYYCNKDARWYAYNSEYDHWGQGTQVSVSS”, for which the “polyreactivity (PSR sort gate)” value is “low polyreactivity”.
In the case of “QVQLVESVVGLVQAGGSLRLICAASGIIISRYAMECYRQAPGKERELVAAITRSGGDTYYADSVKGRFTISRDNAKNTVYLQMNSLKPEDTAVYYCAASSSWYEDHDYWGQGTQVTVSS” it was “low polyreactivity”.
“QVQLVESVVGLVQAGGSLRLSCAASGFIFVVYAMGWYRQAPGKERELVAAITNGGITYYADSVKGRFTISRDNAKNTVYLQMNSLKPEDTAVYYCNAQYTDYDGYVGYYYWGQGTQVTVSS”: the “polyreactivity (PSR sort gate)” value is “low polyreactivity”.

(Values after the nanobody polyreactivity screen of Harvey et al. (2022).)
